From patent US20240091321A1
Where a chain is given by its changes, count along the chain named.

B1: PPT1-105 (enzyme, part only; not given: linker identity, part only)
fusion protein, part: SRALQHLDPPAPLPLVIWHGMGDSCCNPLSMGAIKKMVEKKIPGIYVLSLEIGKTLMEDVENSFFLNVNSQVTTVCQALAKDPKLQQGYNAMGFSQGGQFLRAVAQRCPSPPMINLISVGGQHQGVFGLPRCPGESSHICDFIRKTLNAGAYSKVVQERLVQAEYWHDPIKEDVYRNHSIFLADINQERGINESYKKNLMALKKFVMVKFLNDSIVDPVDSEWFGFYRSGQAKETIPLQETSLYTQDRLGLKEMDNAGQLVFLATEGDHLQLSEEWFYAHIIPFLGRPRAVPTQSRTLCGGELVDTLQFVCGDRGFLFSRGGGGSRGILEECCFRDCDLALLETYCATPARSE
B2: PPT1-106 (enzyme, part only; not given: linker identity, part only)
fusion protein, part: B1 fusion protein, part with D336E

Legend:
CI-MPR receptor [1] = assay: CIMPR binding assay, PPT1 conditioned media, dilution starting at 50 nM, bound PPT1 activity; the table prints no units, units of the axes
CI-MPR receptor [2] = assay: CIMPR binding assay, PPT1 conditioned media, curves starting at 25 nM, bound PPT1 activity; the table prints no units, units of the axes

Binder | Bmax (CI-MPR receptor [1]) | Kd (CI-MPR receptor [1]) | Bmax (CI-MPR receptor [2]) | Kd (CI-MPR receptor [2])
B1 | 73.5 nmol/mL/h | 4.45 nM | 73.5 nmol/mL/h | 4.45 nM
B2 | 91.4 nmol/mL/h | 5.46 nM | 91.4 nmol/mL/h | 5.46 nM
